Measurements from publication PMC11508082.

Target: T1, PdhR-his (Escherichia coli O157:H7 (EHEC) TUV93-0?) (UniProt P0ACM1)
T1 sequence: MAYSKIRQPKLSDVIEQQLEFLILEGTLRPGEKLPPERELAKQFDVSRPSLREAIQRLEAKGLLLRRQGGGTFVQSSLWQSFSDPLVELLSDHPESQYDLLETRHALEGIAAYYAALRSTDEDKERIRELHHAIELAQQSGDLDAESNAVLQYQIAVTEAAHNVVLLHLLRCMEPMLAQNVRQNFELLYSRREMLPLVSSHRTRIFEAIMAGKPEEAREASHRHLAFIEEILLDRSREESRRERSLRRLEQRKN
Experiment: EMSA

With “GGTTCCGATAGAAAGTCCTGGAACAACCGGACCAAAAAGAAAAACCTACCGAGTTGGTAATGGTATTGTGGGACAGTCTAATATCTGGAACGAAATGATCATGAGGCGGAAAAAGGAGAGTTA (double strand) [grlA promoter probe]” the binding was “no binding”.
In the case of “TGTGCACAGTTTCATGATTTCAATCAAAACCTGTATGGACATAAGGTGAATACTTTGTTACTTTAGCGTCACAGACATGAAATTGGTAAGACCAATTGACTTCGGCAAGTGGCTTAAGACAGGAACTCATGGCCTACAGCAAAATCCGCCAACCAAAACTCTCCGATGTGATTGAGCAGC (double strand) [PpdhR promoter probe]”, the binding is reported as “binds”.
